Bridge positions count the residues as written; N and C are the ends. Square brackets hold non-standard residues; d marks the D form. Ends that are not written are not given here. S5 = C=CCCC[C@](C)(N)C(=O)O; βAla = NCCC(=O)O
Columns and labels:
ICN1-CSL complex = ICN1-CSL complex (Homo sapiens, UniProt P46531+Q06330); details: cited from earlier work
[1] = system: Notch target genes (HES1, MYC, DTX1); details: incubated with human T-ALL cells; cited from earlier work
[2] = molecular target: T1, Bio-sdnMAML1 binding to GST-RAMANK1-CSL (Homo sapiens, UniProt P46531+Q06330); assay: ALPHAscreen NTC competition assay; details: titration of unlabeled peptide (FIG. 2h)
T1 construct: RAMANK1 (residues 1761-2127) and GST-labeled RAMANK1; Human CSL bearing a C-terminal hexahistidine tag (residues 9-435); hexahistidine (His6) (C); made in house; host or cells: E. coli BL21(DE3) pLysS (proteins); solid-phase peptide synthesis (Bio-sdnMAML1)
T1 sequence (P46531 1760-2126): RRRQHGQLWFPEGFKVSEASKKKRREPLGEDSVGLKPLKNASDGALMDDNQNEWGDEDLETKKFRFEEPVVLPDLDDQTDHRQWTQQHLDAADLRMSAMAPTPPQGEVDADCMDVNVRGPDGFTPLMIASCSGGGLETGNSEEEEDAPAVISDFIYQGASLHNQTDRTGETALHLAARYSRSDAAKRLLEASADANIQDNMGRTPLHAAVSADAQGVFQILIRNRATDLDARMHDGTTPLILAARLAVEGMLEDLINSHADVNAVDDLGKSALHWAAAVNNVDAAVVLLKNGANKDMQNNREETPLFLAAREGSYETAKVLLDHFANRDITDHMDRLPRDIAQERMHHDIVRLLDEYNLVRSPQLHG
T1 sequence (Q06330 23-449): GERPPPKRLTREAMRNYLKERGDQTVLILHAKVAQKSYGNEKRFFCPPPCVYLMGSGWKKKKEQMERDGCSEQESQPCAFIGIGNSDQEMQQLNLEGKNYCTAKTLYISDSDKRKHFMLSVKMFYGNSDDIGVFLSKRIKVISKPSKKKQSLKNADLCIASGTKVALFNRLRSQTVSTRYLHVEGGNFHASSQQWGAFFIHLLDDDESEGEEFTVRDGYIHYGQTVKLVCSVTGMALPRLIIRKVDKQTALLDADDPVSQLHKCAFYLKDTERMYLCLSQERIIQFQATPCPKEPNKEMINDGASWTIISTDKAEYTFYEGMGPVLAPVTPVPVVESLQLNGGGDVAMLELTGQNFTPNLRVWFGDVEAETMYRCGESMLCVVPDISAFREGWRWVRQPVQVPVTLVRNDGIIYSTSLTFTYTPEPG
Description: The biophysics of NTC assembly has been studied using relatively low-throughput assays including electrophoretic-mobility shift assays^24, isothermal titration calorimetry^49, and various immunoprecipitation strategies. More recently, Del Bianco et al. reported the use of a FRET-based system measuring the proximity of a donor fluorophore-labeled ANK protein to an acceptor-labeled oligonucleotide upon NTC assembly, which allowed determination of relative equilibrium constants for the entire complex^45. We also reported the use of surface plasmon resonance (SPR) and fluorescence polarization assays measuring the association of NTC components with each other and with stapled peptides^37. To date however, there are no high-throughput assays reported that quantitatively measure dnMAML1-NOTCH-CSL complex formation. […] The ALPHAscreen technology (ALPHA meaning amplified luminescence proximity homogenous assay) employs functionalized beads approximately 200 nm in diameter to detect the association of cognate binding partners in solution^50,51. […] The use of microwave-assisted peptide synthesis and a slightly altered SPPS protocol readily afforded the biotinylated sdnMAML1 peptide (bio-sdnMAML1, and others with alternative N-terminal modifications) at greater than 95% purity by LCMS analysis (FIG. 2b, FIG. 7). […]

ICN1-CSL complex, sequence (P46531 1754-2555 limits assumed): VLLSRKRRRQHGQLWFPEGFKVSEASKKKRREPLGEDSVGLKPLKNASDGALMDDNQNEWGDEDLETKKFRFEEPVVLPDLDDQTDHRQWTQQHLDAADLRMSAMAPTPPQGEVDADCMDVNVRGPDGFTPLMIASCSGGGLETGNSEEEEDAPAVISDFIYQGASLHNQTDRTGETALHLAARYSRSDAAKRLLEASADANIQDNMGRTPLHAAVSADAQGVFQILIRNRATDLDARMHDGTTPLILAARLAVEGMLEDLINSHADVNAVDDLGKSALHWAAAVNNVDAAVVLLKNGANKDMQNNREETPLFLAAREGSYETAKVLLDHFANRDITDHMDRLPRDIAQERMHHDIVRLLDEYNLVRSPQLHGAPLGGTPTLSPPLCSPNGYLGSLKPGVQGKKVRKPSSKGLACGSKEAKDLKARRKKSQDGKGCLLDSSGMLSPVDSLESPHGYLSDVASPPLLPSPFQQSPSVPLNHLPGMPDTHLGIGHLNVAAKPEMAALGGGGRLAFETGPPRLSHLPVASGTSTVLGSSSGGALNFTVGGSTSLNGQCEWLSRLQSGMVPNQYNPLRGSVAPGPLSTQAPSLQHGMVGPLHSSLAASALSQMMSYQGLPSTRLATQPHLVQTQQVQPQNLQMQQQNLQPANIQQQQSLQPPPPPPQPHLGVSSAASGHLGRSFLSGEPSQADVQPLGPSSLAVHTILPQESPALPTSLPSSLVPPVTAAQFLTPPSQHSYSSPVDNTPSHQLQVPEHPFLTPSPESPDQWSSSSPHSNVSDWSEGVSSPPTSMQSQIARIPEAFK
ICN1-CSL complex, sequence (Q06330 whole entry): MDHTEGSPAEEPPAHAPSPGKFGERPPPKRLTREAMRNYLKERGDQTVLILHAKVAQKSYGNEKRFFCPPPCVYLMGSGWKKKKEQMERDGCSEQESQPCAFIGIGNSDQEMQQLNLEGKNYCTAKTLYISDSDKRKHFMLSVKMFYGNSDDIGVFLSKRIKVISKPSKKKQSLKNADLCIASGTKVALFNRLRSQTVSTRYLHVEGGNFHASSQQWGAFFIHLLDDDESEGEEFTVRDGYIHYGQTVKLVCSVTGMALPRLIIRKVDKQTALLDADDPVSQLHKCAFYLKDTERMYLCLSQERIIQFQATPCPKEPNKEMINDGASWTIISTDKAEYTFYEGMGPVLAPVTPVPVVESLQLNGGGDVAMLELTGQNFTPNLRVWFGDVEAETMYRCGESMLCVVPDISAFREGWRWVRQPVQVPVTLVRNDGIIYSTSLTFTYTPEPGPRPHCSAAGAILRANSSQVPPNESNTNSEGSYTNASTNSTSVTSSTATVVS

Substance | binding to ICN1-CSL complex and competition with MAML1 (ICN1-CSL complex) | expression of canonical Notch target genes [1] | dissociation of pre-incubated bio-sdnMAML1-GSTRAMANK1-CSL complex [2]
SAHM1: stapled MAML1 E21-T36 peptide with E28 and R32 replaced by i→i+4 ligated α,α-disubstituted S5 amino acids; previously reported (Ac-W[βAla]ERLRRRI[S5]LCR[S5]HHST; staple 10-14) | specifically bind the ICN1-CSL complex and competitively inhibit binding of recombinant dnMAML1 as well as full-length MAML1 | inhibit the expression of a panel of canonical Notch target genes | 
Ac-sdnMAML1: non-labeled competitor dnMAML1 peptide capped with an acetylated beta-alanine spacer ({Ac-βAla}-HSAVMERLRRRIELCRRHHSTCEARYEAVSPERLELERQHTFALHQRCIQAKAKR; staple (positions not given here); also: stapled, staple positions not given here) |  |  | dose-dependent dissociation of the complex
